Kd data for 1 molecule are collected here from publication PMC8315802 (2021).

In this test the target is F-actin (skeletal muscle actin) (Oryctolagus cuniculus, UniProt P68135). Put plainly: actin co-sedimentation.

B1: Rng2 (curly) 1-189 (protein)
chain: MDVNVGLSRLQSQAGAPVGTKGSNTRLAAKQRETLQAYDYLCRVDEAKKWIEECLGTDLGPTSTFEQSLRNGVVLALLVQKFQPDKLIKIFYSNELQFRHSDNINKFLDFIHGIGLPEIFHFELTDIYEGKNLPKVIYCIHALSYFLSMQDLAPPLIKSDENLSFTDEDVSIIVRRLRQSNVILPNFKA
B1 registered a dissociation constant Kd of 1000 nM.
